Reference: US20250313612A1 (Adimab, published 2025)

Assays:
[1] = biological target: RSV F protein of subtype A (strain A2) on recombinant mKate-RSV (Respiratory syncytial virus subtype A …, UniProt P03420 26-574); test: cell-based or functional assay
[2] = biological target: RSV F protein of subtype B (18537) on recombinant mKate-RSV (Respiratory syncytial virus subtype B …, UniProt P13843 26-574); test: cell-based or functional assay
[3] = biological target: RSV F protein of recombinant mKate-RSV, subtype B (18537) (Respiratory syncytial virus subtype B …, UniProt P13843 26-574); test: cell-based or functional assay
[4] = biological target: RSV F protein of recombinant mKate-RSV, subtype A (strain A2) (Respiratory syncytial virus subtype A …, UniProt P03420 26-574); test: cell-based or functional assay
[5] = biological target: T1, RSV F ectodomain stabilized in the postfusion conformation (F ΔFP), subtype B (Respiratory syncytial virus subtype B, UniProt P13843 26-109; P13843 147-524); test: BLI, IgG on AHQ sensor, 100 nM antigen
T1 construct: extracellular domain; trimer; also called Postfusion subtype B; postF subtype B

[6] = biological target: T2, RSV F ectodomain stabilized in the postfusion conformation (F ΔFP), subtype A (Respiratory syncytial virus subtype A, UniProt P03420 26-109; P03420 147-524); test: BLI, IgG on AHQ sensor, 100 nM antigen
T2 construct: extracellular domain; trimer; furin-cleaved; also called Postfusion subtype A

| Binder | Neut IC50 (µg/ml) subtype A [1] | Neut IC50 (µg/ml) subtype B [2] | Neut IC50 subtype B [3] | Neut IC50 subtype A [4] | Kd [5] | Kd [6] |
| --- | --- | --- | --- | --- | --- | --- |
| ADI-14545 (antibody, V domains shown) VH: EVQLVESGGGLVKPGGSLRLSCAASGFTFSNAWMSWVRQAPGKGLEWVGRVKSKSKGGTTHYAEAVKGRFTISRDDSKNTLYLQMQSLKTEDTAVYYCTSHAYNSDWFVTTDYYYYMDVWGKGTTVTVSS VL: DIVLTQSPSSLSASVGDRVTFTCRASQSISNYLNWYQQKPGKAPKVLIYGASNLLSGVPSRFIGSGSGTDFTLTINSLQPEDFATYYCQQCYSAPITFGQGTRLEIK | 0.036 µg/mL | 0.073 µg/mL |  |  |  |  |
| ADI-14485 (antibody, V domains shown, full-length IgG (yeast-expressed); also called Antibody Number 46; Ab# 46) VH: EVQLVESGAEVKRPGSSVKVSCKVVGGSFSNYAISWVRQAPGQGPEYLGGIIPAFRTAKYAKKFQDRLTITADESTSTAYMEMRGLTSDDTGLYYCARPEGDFGDLKWLRSPFDYWGQGTLVTVSS VL: EIVLTQSPATLSVSPGQRVTLSCRASQGVSINLAWYQQKPGQPPRLLIYGASTRATDIPARFSGSGSGTDFTLTISSLQSEDFAVYYCQQYDDWPPQLTFGPGTKLEIK |  |  | 2.81 µg/mL | > 10 µg/mL | 0.642 nM | 1.52 nM |
| ADI-14475 (antibody, V domains shown, full-length IgG (yeast-expressed); also called Antibody Number 37; Ab# 37) VH: QVQLVQSGPALVKPTQTLTLTCTFSGFSLTTARMCVSWIRQPPGKALEWLARIDWDDDKSYSTSLKTRLTIAKDTSKNQVVLTMTNMGPADTATYYCVRTPIYASGGYYLSYFDSWGQGTLVTVSS VL: DIVMTQSPSSLSASVGDSVTITCRASQTIASYVNWYQHKPGQAPNLLIYAASILHSGVPSRFRGGGSGTDFTLTINSLQPEDFATYYCQQSYSTPYTFGQGTKVDIK |  |  | 0.522 µg/mL | 0.391 µg/mL | 0.242 nM | 0.299 nM |
| ADI-14476 (antibody, V domains shown, full-length IgG (yeast-expressed); also called Antibody Number 38; Ab# 38) VH: QVQLVESGPTLVKPTQTLSLTCTFSGFSLTTRGVGVGWIRQPPGKALEWLGFTYWDGDDRYSPSLRNRVSIAKDTSKNQVVLTLTNMDPVDTATYFCVHSDRYDRGGYYLYFFDYWGPGTLVTVSS VL: DIRVTQSPSSLSASVGDRVSISCRASQTIASYVNWYQQRPGKAPQLLIFAASHLQTGVPSRFSGRGSGTDFTLTITSLQPEDFATYYCQQSYTSPYTFGQGTKVEIK |  |  | 2.19 µg/mL | 0.929 µg/mL | 9.12 nM | 0.827 nM |
| ADI-14542 (antibody, V domains shown) VH: QVQLVQSGAEVKKPGESLKISCKGSGYVFSSYWVAWVRQMPGKGLEWMGIIYPHDSDTRYSPAFQGQVTISADKSINTAYLQWSSLKASDTAMYYCTIILIPAPIRAPDGFDIWGQGTTVTVSS VL: NFMLTQPHSVSESPGKTVTISCTGSGGTIASNYVQWYQQRPGSVPTTVIYENNERPSGVPDRFSGSIDRSSNSASLTISGLKTEDEADYYCQSYDSSYHVVFGGGTKVTVL | 0.008 µg/mL | 4.3 µg/mL |  |  |  |  |
| ADI-14540 (antibody, V domains shown) VH: QVQLVESGGGVVQPGRSLRLSCAASGFTFTDYAMHWVRQAPGKGLQWVALISYNGRIQYYADSVKGRFTISRDDSKNTLYLQMNSLRAGDTAVYYCARDGDLVAVPAAIGFDSWGQGTLVTVSS VL: DIQVTQSPDSLAVSLGERATINCKSSQSVLYTSNNKNYLAWYQQKSRQPPKLLIYWASTRESGVPERFSGSGSGTDFTLTISSLQAEDVAVYYCQQYSSPPYTFGQGTKVEIK | > 10 µg/mL | > 10 µg/mL |  |  |  |  |
| ADI-14544 (antibody, V domains shown) VH: QVQLVQSGAEVKKPGESLKISCKGAGFGSTNSWIGWVRQMPGKGLEWMGVIFPGDSDTKYSPTFQGQVTISVDKSINTAYLQWSSLKASDTAIYYCARMLASVGLSNFDAWGQGTLVTVSS VL: QPVLTQPPSVSLAPGKTATITCGGNNIGGKSVHWYQQKPGQAPVLVIDYDSDRPSGIPERFSGSNSGNTATLTINRVEAGDEADYYCQVWDSISDHVLFGGGTKLTVL | > 10 µg/mL | > 10 µg/mL |  |  |  |  |
| ADI-14470 (antibody, V domains shown, full-length IgG (yeast-expressed); also called Antibody Number 33; Ab# 33) VH: QVTLKESGPALVKPTETLTLTCTFSGFSLSTKRLSVSWIRQPPGKALEWLARIDWDDDKSYSTSLRTRLTIAKDTSKNQVVLTMTNMGPADTATYFCVRSSVYASNAYYLYYFDSWGQGTLVTVSS VL: DIRMTQSPSSLSASVGDRVTITCRASQSIATYLNWYQHKPGKAPTLLIYAASILHSGVPPRFSGRASGTDFTLTISSLQPEDFATYYCQQAYSSPYTFGQGTKVDIK |  |  | 0.473 µg/mL | 0.226 µg/mL | 0.314 nM | 0.358 nM |
| ADI-14477 (antibody, V domains shown, full-length IgG (yeast-expressed); also called Antibody Number 39; Ab# 39) VH: EVQLVESGPTLVKPTQTLTLTCSLSGFSLTTRGVGVGWIRQPPGKAPECLGFVYWDDDNRYSPSLRGRLTISKDTSKNQVVLTLTNMDPLDTATYYCVHSDLYDRGGYYLFYFDDWGQGTLVTVSS VL: DIQVTQSPSSLSASVGDRVTITCRASQPIASYLNWYQQKPGQAPKLLIYAASMLQSGAPSKFSGRGSGTDFTLTITTLQPEDFATYYCQQSYTFPYTFGQGTKVEIK |  |  | > 10 µg/mL | > 10 µg/mL | 1.22 nM | 0.361 nM |
| ADI-14468 (antibody, V domains shown, full-length IgG (yeast-expressed); also called Antibody Number 31; Ab# 31) VH: QVQLVQSGPTLVRPTQTLTLTCTFSGFSLSTRGVGVGWVRQSPGKAPEFLVLAHWDDDKIYSPSLRRRLSVTKDVSKNQVVLALTNVDPVDTGTYFCVKSDLYDRGGYYLYYFDHWGQGTLVTVSS VL: DIRMTQSPSSLSASVGDRVTITCRASQTIASYVNWYLQRPGEAPKLLIYAASNLHSGAPPSLIGRGSGTDFTLTINTLQPEHFGTYFCQQTFSSPYTFGQGTKVEIK |  |  | 2.41 µg/mL | 0.241 µg/mL | 0.241 nM | 0.297 nM |
| ADI-14469 (antibody, V domains shown, full-length IgG (yeast-expressed); also called Antibody Number 32; Ab# 32) VH: QVQLVESGPTLVKPTQTLTLTCTFSGFSLTTRGVGVGWVRQPPGKALEFLGLTHWDDDKIYSPSLRRRLTITKDTSKNQVVLALANVDPVDTATYFCVKSDLYDRGGYYLYYFDYWGQGTLVTVSS VL: EIVLTQSPSSLSASVGDRVTITCRASQTIPSYVNWYLQRPGEAPKLLIYGASNLHTGAPPTFIGRGSGADFTLTINTLQPEHFGTYYCQQTFSSPYTFGQGTKVEIK |  |  | 0.013 µg/mL | 0.05 µg/mL | 2.9 nM | 0.301 nM |
| ADI-14533 (antibody, V domains shown) VH: QVQLVQSGAEVKKPGSSVIISCKASGGTFRNYGFTWVRQAPGQGLEWLGGIIPMFETVRYAQKFQGRVTITADENTNTAFLAVSSLRSEDTGVYFCARDLQTGIMSSVRSEYRGFMDPWGQGTLVTVSS VL: QSVLTQPPSVSGAPRQRVTISCSGSSSNIGTNAVNWYQQLPGKSPKVLIYYDELVPSGVSDRFSGSRSGTSASLAISGLRSEDEAYYYCAAWDDSLNGWVFGGGTQLTVL | > 10 µg/mL | 0.442 µg/mL |  |  |  |  |
| ADI-14543 (antibody, V domains shown) VH: QVQLVQSGAEVKKPGSSVKVSCKASGDTFSSYAISWVRQAPGQGLEWMGGVLPMLGTANYAQRFRGRVTLTADGSTNTAYMEMSSLRLDDTAVYYCARVAGLGNSYGRYPDLWGQGTLVTVSS VL: DIVMTQSPSSLSASVGDRVTITCRASQGISSSLAWYQQKPGKAPELLIYAASSLHSGVPSRFRGSGSGTDFTLTISSVQPEDFATYYCQQANSFPYTFGQGTKLEIK | > 10 µg/mL | > 10 µg/mL |  |  |  |  |
| ADI-14541 (antibody, V domains shown) VH: EVQLVESGGGLVRPGGSLRLSCAASGFAFSSYSLHWVRQAPGRGLEWVASISAGSSFTDYAASVRGRFTISRNIANSLYLQMNRLRAEDTAVYYCARVIGDGTILGVVF VL: QSVLTQPPSVSGAPGQRVTISCTGGRSNIGAGYDVHWYQQLPGTAPKLLIYGNINRPSGVPDRFSGSKSGTSASLAITGLLAEDEADYYCQSYDSSLSVIFGGGTKLTVL | 0.023 µg/mL | 0.106 µg/mL |  |  |  |  |
